In US20160159885A1:

Experiments:
[1] = molecular target: pseudolysin (UniProt P14756); experiment: cell-based or functional assay
[2] = molecular target: thermolysin (Bacillus thermoproteolyticus) (UniProt P00800); experiment: cell-based or functional assay
Sequence of UniProt P00800 (P00800 233-548 limits assumed): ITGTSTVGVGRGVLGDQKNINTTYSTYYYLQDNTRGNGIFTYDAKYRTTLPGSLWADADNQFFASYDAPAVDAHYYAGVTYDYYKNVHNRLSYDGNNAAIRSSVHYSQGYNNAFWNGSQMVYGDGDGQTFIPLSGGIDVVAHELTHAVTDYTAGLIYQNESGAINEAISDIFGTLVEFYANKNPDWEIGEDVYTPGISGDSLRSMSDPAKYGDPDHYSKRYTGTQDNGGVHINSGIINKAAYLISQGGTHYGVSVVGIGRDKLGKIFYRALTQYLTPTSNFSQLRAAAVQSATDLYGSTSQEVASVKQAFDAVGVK

Sequence of UniProt P14756 (P14756 198-498 limits assumed): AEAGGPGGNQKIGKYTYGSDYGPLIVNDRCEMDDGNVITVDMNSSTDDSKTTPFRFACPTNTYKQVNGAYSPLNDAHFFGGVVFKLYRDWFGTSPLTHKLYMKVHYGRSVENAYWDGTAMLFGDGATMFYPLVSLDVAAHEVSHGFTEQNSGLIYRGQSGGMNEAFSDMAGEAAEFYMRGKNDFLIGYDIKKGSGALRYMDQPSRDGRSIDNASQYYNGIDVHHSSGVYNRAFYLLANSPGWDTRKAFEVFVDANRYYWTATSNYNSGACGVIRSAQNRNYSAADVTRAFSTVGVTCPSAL

## wtIMPIα (wild-type insect metalloproteinase inhibitor IMPIα) (from UniProt P82176 20-88)
[1]
  IC50 wt PLN; column Pos35 InA: 0.0218 µM
  IC50 wt PLN; column Pos35 InF: 0.022 µM
  IC50 wt PLN; column Pos35 InL: 0.0219 µM
  IC50 wt PLN; column Pos35 InM: 0.0219 µM
  IC50 wt PLN; column Pos35 InV: 0.0222 µM
  IC50 wt PLN; column Pos35 InW: 0.0221 µM
  IC50 wt PLN; column Pos35 InY: 0.022 µM
  IC50 wt PLN; column Pos36 InA: 0.022 µM
  IC50 wt PLN; column Pos36 InD: 0.0209 µM
  IC50 wt PLN; column Pos36 InE: 0.0216 µM
  IC50 wt PLN; column Pos36 InF: 0.0223 µM
  IC50 wt PLN; column Pos36 InG: 0.0216 µM
  IC50 wt PLN; column Pos36 InH: 0.022 µM
  IC50 wt PLN; column Pos36 InK: 0.022 µM
  IC50 wt PLN; column Pos36 InM: 0.022 µM
  IC50 wt PLN; column Pos36 InQ: 0.0219 µM
  IC50 wt PLN; column Pos36 InR: 0.0223 µM
  IC50 wt PLN; column Pos36 InT: 0.0219 µM
  IC50 wt PLN; column Pos36 InV: 0.0221 µM
  IC50 wt PLN; column Pos36 InW: 0.0221 µM
  IC50 wt PLN; column Pos36 InY: 0.0222 µM
  IC50 wt PLN; column Pos37 NnA: 0.0219 µM
  IC50 wt PLN; column Pos37 NnC: 0.0207 µM
  IC50 wt PLN; column Pos37 NnD: 0.0226 µM
  IC50 wt PLN; column Pos37 NnE: 0.0219 µM
  IC50 wt PLN; column Pos37 NnG: 0.0218 µM
  IC50 wt PLN; column Pos37 NnH: 0.0212 µM
  IC50 wt PLN; column Pos37 NnL: 0.0208 µM
  IC50 wt PLN; column Pos37 NnM: 0.0308 µM
  IC50 wt PLN; column Pos37 NnP: 0.0208 µM
  IC50 wt PLN; column Pos37 NnQ: 0.0222 µM
  IC50 wt PLN; column Pos37 NnS: 0.0215 µM
  IC50 wt PLN; column Pos37 NnV: 0.0212 µM
  IC50 wt PLN; column Pos37 NnW: 0.0215 µM
  IC50 wt PLN; column Pos37 NnY: 0.0215 µM
  IC50 wt PLN; column Pos38 InF: 0.0211 µM
  IC50 wt PLN; column Pos38 InG: 0.0228 µM
  IC50 wt PLN; column Pos38 InH: 0.0231 µM
  IC50 wt PLN; column Pos38 InL: 0.0217 µM
  IC50 wt PLN; column Pos38 InM: 0.0214 µM
  IC50 wt PLN; column Pos38 InQ: 0.0222 µM
  IC50 wt PLN; column Pos38 InV: 0.0215 µM
  IC50 wt PLN; column Pos38 InW: 0.0211 µM
  IC50 wt PLN; column Pos38 InY: 0.0211 µM
  IC50 wt PLN; column Pos39 RnA: 0.0221 µM
  IC50 wt PLN; column Pos39 RnF: 0.0205 µM
  IC50 wt PLN; column Pos39 RnG: 0.0203 µM
  IC50 wt PLN; column Pos39 RnI: 0.0212 µM
  IC50 wt PLN; column Pos39 RnK: 0.022 µM
  IC50 wt PLN; column Pos39 RnL: 0.0201 µM
  IC50 wt PLN; column Pos39 RnM: 0.0221 µM
  IC50 wt PLN; column Pos39 RnQ: 0.0221 µM
  IC50 wt PLN; column Pos39 RnT: 0.0219 µM
  IC50 wt PLN; column Pos39 RnV: 0.0218 µM
  IC50 wt PLN; column Pos39 RnW: 0.0199 µM
  IC50 wt PLN; column Pos39 RnY: 0.0225 µM
  IC50 wt PLN; wt (avg), Pos35 block: 0.022 µM
  IC50 wt PLN; wt (avg), Pos36 block: 0.0219 µM
  IC50 wt PLN; wt (avg), Pos37 block: 0.0222 µM
  IC50 wt PLN; wt (avg), Pos38 block: 0.0218 µM
  IC50 wt PLN; wt (avg), Pos39 block: 0.0214 µM
[2]
  IC50 wt TLN; column Pos35 InA: 0.0126 µM
  IC50 wt TLN; column Pos35 InF: 0.0126 µM
  IC50 wt TLN; column Pos35 InL: 0.0126 µM
  IC50 wt TLN; column Pos35 InM: 0.0126 µM
  IC50 wt TLN; column Pos35 InV: 0.0126 µM
  IC50 wt TLN; column Pos35 InW: 0.0126 µM
  IC50 wt TLN; column Pos35 InY: 0.0126 µM
  IC50 wt TLN; column Pos36 InA: 0.0124 µM
  IC50 wt TLN; column Pos36 InD: 0.0125 µM
  IC50 wt TLN; column Pos36 InE: 0.0125 µM
  IC50 wt TLN; column Pos36 InF: 0.0126 µM
  IC50 wt TLN; column Pos36 InG: 0.0126 µM
  IC50 wt TLN; column Pos36 InH: 0.0124 µM
  IC50 wt TLN; column Pos36 InK: 0.0125 µM
  IC50 wt TLN; column Pos36 InM: 0.0124 µM
  IC50 wt TLN; column Pos36 InQ: 0.0126 µM
  IC50 wt TLN; column Pos36 InR: 0.0126 µM
  IC50 wt TLN; column Pos36 InT: 0.0124 µM
  IC50 wt TLN; column Pos36 InV: 0.0126 µM
  IC50 wt TLN; column Pos36 InW: 0.0125 µM
  IC50 wt TLN; column Pos36 InY: 0.0126 µM
  IC50 wt TLN; column Pos37 NnA: 0.0126 µM
  IC50 wt TLN; column Pos37 NnC: 0.0127 µM
  IC50 wt TLN; column Pos37 NnD: 0.0121 µM
  IC50 wt TLN; column Pos37 NnE: 0.0126 µM
  IC50 wt TLN; column Pos37 NnG: 0.0126 µM
  IC50 wt TLN; column Pos37 NnH: 0.0128 µM
  IC50 wt TLN; column Pos37 NnL: 0.0111 µM
  IC50 wt TLN; column Pos37 NnM: 0.0117 µM
  IC50 wt TLN; column Pos37 NnP: 0.012 µM
  IC50 wt TLN; column Pos37 NnQ: 0.0126 µM
  IC50 wt TLN; column Pos37 NnS: 0.0125 µM
  IC50 wt TLN; column Pos37 NnV: 0.0127 µM
  IC50 wt TLN; column Pos37 NnW: 0.0127 µM
  IC50 wt TLN; column Pos37 NnY: 0.0125 µM
  IC50 wt TLN; column Pos38 InF: 0.0126 µM
  IC50 wt TLN; column Pos38 InG: 0.0125 µM
  IC50 wt TLN; column Pos38 InH: 0.0125 µM
  IC50 wt TLN; column Pos38 InL: 0.0126 µM
  IC50 wt TLN; column Pos38 InM: 0.0125 µM
  IC50 wt TLN; column Pos38 InQ: 0.0126 µM
  IC50 wt TLN; column Pos38 InV: 0.0126 µM
  IC50 wt TLN; column Pos38 InW: 0.0124 µM
  IC50 wt TLN; column Pos38 InY: 0.0126 µM
  IC50 wt TLN; column Pos39 RnA: 0.0125 µM
  IC50 wt TLN; column Pos39 RnF: 0.0125 µM
  IC50 wt TLN; column Pos39 RnG: 0.0127 µM
  IC50 wt TLN; column Pos39 RnI: 0.0125 µM
  IC50 wt TLN; column Pos39 RnK: 0.0125 µM
  IC50 wt TLN; column Pos39 RnL: 0.0124 µM
  IC50 wt TLN; column Pos39 RnM: 0.0126 µM
  IC50 wt TLN; column Pos39 RnQ: 0.0126 µM
  IC50 wt TLN; column Pos39 RnV: 0.0125 µM
  IC50 wt TLN; column Pos39 RnW: 0.0124 µM
  IC50 wt TLN; wt (avg), Pos35 block: 0.0126 µM
  IC50 wt TLN; wt (avg), Pos36 block: 0.0125 µM
  IC50 wt TLN; wt (avg), Pos37 block: 0.0124 µM
  IC50 wt TLN; wt (avg), Pos38 block: 0.0125 µM
  IC50 wt TLN; wt (avg), Pos39 block: 0.0125 µM
